Test results taken from US20210071139A1.

Target: TOX (UniProt Q66JW3)
Assay: anti-TOX IP from EL4 cells, mass spectrometry, MiST analysis

Emg1, sequence (O35130 whole entry): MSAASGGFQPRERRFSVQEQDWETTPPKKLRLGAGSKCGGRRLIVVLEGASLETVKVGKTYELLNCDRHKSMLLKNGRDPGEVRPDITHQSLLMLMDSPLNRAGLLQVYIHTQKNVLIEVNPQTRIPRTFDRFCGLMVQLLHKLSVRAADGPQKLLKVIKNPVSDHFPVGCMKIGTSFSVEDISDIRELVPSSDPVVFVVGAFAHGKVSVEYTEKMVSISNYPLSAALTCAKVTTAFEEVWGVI
TOX, sequence (Q66JW3 whole entry): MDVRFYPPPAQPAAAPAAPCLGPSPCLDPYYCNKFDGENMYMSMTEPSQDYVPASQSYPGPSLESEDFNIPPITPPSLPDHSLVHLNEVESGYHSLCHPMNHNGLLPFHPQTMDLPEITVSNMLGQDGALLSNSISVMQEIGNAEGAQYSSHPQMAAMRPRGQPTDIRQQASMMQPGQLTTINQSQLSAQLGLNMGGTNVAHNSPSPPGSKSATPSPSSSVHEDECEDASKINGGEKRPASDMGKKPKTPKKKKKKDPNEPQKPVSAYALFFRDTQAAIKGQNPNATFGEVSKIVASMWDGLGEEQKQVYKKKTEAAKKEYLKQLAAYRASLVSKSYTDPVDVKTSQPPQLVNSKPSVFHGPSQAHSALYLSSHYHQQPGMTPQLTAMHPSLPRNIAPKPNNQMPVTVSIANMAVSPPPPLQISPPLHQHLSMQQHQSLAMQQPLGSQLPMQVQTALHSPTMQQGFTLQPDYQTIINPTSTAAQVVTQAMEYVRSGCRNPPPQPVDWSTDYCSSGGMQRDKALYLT

Substance	Abundance	MiST Score	Reproducibility	Specificity
Aars (from UniProt Q8BGQ7 1-968) (enzyme)	4.49e-06	0.827	0.459	1
Add3 (from UniProt Q9QYB5 2-706)	3.22e-06	0.807	0.394	1
Ahnak	6.22e-06	0.812	0.497	0.961
Ap3d1 (from UniProt O54774 2-1199)	1.02e-06	0.817	0.427	1
Baz1a (from UniProt O88379 1-1555)	4.09e-07	0.825	0.454	1
Ckap5 (from UniProt A2AGT5 1-2032)	1.02e-06	0.81	0.924	0.765
Cpsf3 (from UniProt Q9QXK7 2-684) (enzyme)	1.17e-05	0.825	0.871	0.811
Ddx18 (from UniProt Q8K363 1-660) (enzyme)	4.72e-05	0.822	0.986	0.756
Dnaja2 (from UniProt Q9QYJ0 1-409)	0.000332	0.8	0.946	0.742
Dnmt1 (from UniProt P13864 1-1620) (enzyme)	4.05e-06	0.814	0.929	0.77
Dst (from UniProt Q91ZU6 1-7393)	1.97e-08	0.804	0.385	1
Ep400 (from UniProt Q8CHI8 1-3072)	2.31e-06	0.825	0.451	1
Ipo4 (from UniProt Q8VI75 1-1082)	1.65e-06	0.826	0.94	0.782
Isy1 (from UniProt Q69ZQ2 1-285)	3.22e-05	0.811	0.856	0.797
LRWD1 (from UniProt Q8BUI3 1-648)	9.87e-06	0.803	0.965	0.737
Lmnb1 (from UniProt P14733 2-585)	1.67e-05	0.822	0.964	0.766
Lrrfip1 (from UniProt Q3UZ39 2-729)	8.42e-06	0.817	0.996	0.743
Nmt1 (from UniProt O70310 1-496) (enzyme)	6.96e-06	0.821	0.948	0.772
Nup98 (from UniProt Q6PFD9 1-880)	5.87e-07	0.803	0.381	1
Otud4 (from UniProt B2RRE7 1-1107) (enzyme)	9.24e-07	0.818	0.993	0.747
Parp2 (from UniProt O88554 1-559) (enzyme)	2.87e-06	0.827	0.46	1
Pds5a (from UniProt Q6A026 1-1332)	1.76e-06	0.824	0.865	0.813

Substance	Abundance	MiST Score	Reproducibility	Specificity
Pds5b (from UniProt Q4VA53 1-1446)	2.47e-06	0.807	0.845	0.797
Ptpn11 (from UniProt P35235 2-593) (enzyme)	4.22e-05	0.808	0.396	1
Rars (from UniProt Q9D0I9 1-660) (enzyme)	4.81e-06	0.797	0.98	0.721
Rftn1 (from UniProt Q6A0D4 2-554)	4.96e-06	0.8	0.37	1
Rpa2 (from UniProt Q62193 1-270)	0.000292	0.814	0.977	0.747
Rpl14; Rpl14-ps1 (from UniProt Q9CR57 1-217)	0.00405	0.797	0.997	0.714
Rps23 (from UniProt P62267 1-143)	0.00479	0.807	0.997	0.728
Sfxn1 (from UniProt Q99JR1 2-322)	3.71e-05	0.827	0.954	0.777
Srsf5 (from UniProt O35326 1-269)	0.000505	0.807	0.996	0.729
Ssb (from UniProt P32067 1-415)	3.74e-05	0.809	0.807	0.817
Stau1 (from UniProt Q9Z108 1-487)	1.96e-05	0.825	0.951	0.776
Supt16; Supt16h (from UniProt Q920B9 2-1047)	4.95e-06	0.818	0.8	0.833
Tbl1x (from UniProt Q9QXE7 2-527)	5.34e-06	0.825	0.453	1
Tdrd3 (from UniProt Q91W18 1-743)	8.62e-06	0.815	0.627	0.907
Tfip11 (from UniProt Q9ERA6 1-838)	5.43e-06	0.826	0.972	0.767
Tpx2 (from UniProt A2APB8 1-745)	1.91e-05	0.805	0.992	0.727
Tra2b (from UniProt P62996 2-288)	3.65e-05	0.803	0.381	1
Wrnip1 (from UniProt Q91XU0 1-660)	3.59e-06	0.812	0.41	1
Yars (from UniProt Q91WQ3 1-528) (enzyme)	2.51e-06	0.802	0.379	1
Ythdf1 (from UniProt P59326 2-559)	3.5e-05	0.811	0.833	0.809
Zc3h11a (from UniProt Q6NZF1 1-792)	1.22e-05	0.801	0.957	0.737

Target: TOX (UniProt Q66JW3)
Assay: anti-TOX IP from EL4 nuclear extract, LC-MS/MS, MiST analysis

Substance	Abundance	MiST Score	Reproducibility	Specificity
Acin1 (from UniProt Q9JIX8 1-1338)	2.27e-05	0.77	0.612	0.848
Ap3b1 (from UniProt Q9Z1T1 1-1105)	4.13e-06	0.778	0.696	0.821
BC005685	0.000234	0.779	0.959	0.705
Bag6 (from UniProt Q9Z1R2 1-1154)	1.4e-06	0.782	0.765	0.797
Brd1	3.1e-06	0.785	0.321	1
Cd3eap (from UniProt Q76KJ5 1-399)	0.000224	0.773	0.993	0.68
Csnk2a2 (from UniProt O54833 1-350) (enzyme)	2.87e-05	0.778	0.913	0.725
Cycs (from UniProt P62897 2-105)	8.14e-05	0.793	0.957	0.726
Eif2a (from UniProt Q8BJW6 1-581)	8.58e-05	0.794	0.992	0.712
Eif3h (from UniProt Q91WK2 1-352)	0.000105	0.784	0.956	0.714
Elmo1 (from UniProt Q8BPU7 1-727)	5.93e-06	0.769	0.595	0.854
Emg1 (from UniProt O35130 1-244) (enzyme)	7.66e-05	0.766	0.939	0.695
Gm20425; Srprb (from UniProt P47758 1-269)	5.88e-06	0.766	0.92	0.703
Hp1bp3 (from UniProt Q3TEA8 2-554)	1.65e-05	0.766	0.779	0.766
Luzp1; mFLJ00226 (from UniProt Q8R4U7 2-1068)	7.26e-06	0.792	0.856	0.77
Lztfl1 (from UniProt Q9JHQ5 1-299)	6.33e-05	0.776	0.894	0.73
Numa1 (from UniProt E9Q7G0 1-2094)	1.43e-06	0.787	0.775	0.799
Pfkl (from UniProt P12382 2-780) (enzyme)	3.37e-06	0.768	0.501	0.894
Ppan (from UniProt Q91YU8 1-470)	4.7e-05	0.792	0.959	0.723
